In US20250066503A1, “CELL INJURY INDUCING THERAPEUTIC DRUG FOR USE IN CANCER THERAPY” (CHUGAI SEIYAKU KABUSHIKI KAISHA, priority 2016, published 2025) one finds Kd data, which are given here for 21 molecules.

For this assay, the target named is T1, human GPC3 (human, UniProt P51654 25-563).
T1 construct: range 25-563; soluble analyte; also called soluble human GPC3; glypican 3
In words: SPR.

T1 sequence (P51654 25-563 limits assumed): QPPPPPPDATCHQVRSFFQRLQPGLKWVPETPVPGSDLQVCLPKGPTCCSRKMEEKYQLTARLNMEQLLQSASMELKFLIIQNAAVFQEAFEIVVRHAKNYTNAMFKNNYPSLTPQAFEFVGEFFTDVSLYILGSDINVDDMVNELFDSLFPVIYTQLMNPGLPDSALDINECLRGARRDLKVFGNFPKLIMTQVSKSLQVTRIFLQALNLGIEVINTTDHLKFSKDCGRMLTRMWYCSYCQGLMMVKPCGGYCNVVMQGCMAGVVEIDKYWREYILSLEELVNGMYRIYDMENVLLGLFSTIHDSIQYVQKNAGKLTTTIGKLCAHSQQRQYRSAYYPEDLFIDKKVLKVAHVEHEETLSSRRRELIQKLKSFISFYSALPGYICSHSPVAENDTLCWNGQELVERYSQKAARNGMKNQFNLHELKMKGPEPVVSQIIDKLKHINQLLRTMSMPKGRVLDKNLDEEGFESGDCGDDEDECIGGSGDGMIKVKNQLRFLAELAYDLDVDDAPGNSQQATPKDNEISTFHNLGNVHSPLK

B1: H0610-G1dh/none-Hi-Kn010G3/L0125-k0 (antibody, V domains shown)
VH: QVQLVQSGAEVKKPGASVKVSCKASGYTFTDYEMHWIRQPPGQGLEWIGAIDGKTPDTAYSQKFKGRVTLTADKSTSTAYMELSSLTSEDTAVYYCTRFYSYTYWGQGTLVTVSS
VL: DIVMTQSPLSLPVTPGEPASISCRSSQSLVHSNRNTYLHWYQQKPGQAPRLLIYKVSNRMSGVPDRFSGSGSGTDFTLKISRVEAEDVGVYYCGQGTQVPYTFGQGTKLEIK
notes: one-arm
On to B1, for which the Kd amounted to 1.71 nM.

B2: H0610-G1dh/none-Hi-Kn010G3/L0127-k0 (antibody, V domains shown)
VH: QVQLVQSGAEVKKPGASVKVSCKASGYTFTDYEMHWIRQPPGQGLEWIGAIDGKTPDTAYSQKFKGRVTLTADKSTSTAYMELSSLTSEDTAVYYCTRFYSYTYWGQGTLVTVSS
VL: DIVMTQSPLSLPVTPGEPASISCRSSQSLVHSNRNTYLHWYQQKPGQAPRLLIYKVSNRPSGVPDRFSGSGSGTDFTLKISRVEAEDVGVYYCGQGTQVPYTFGQGTKLEIK
notes: one-arm
In the case of B2, the Kd was 3.12 nM.

B3: H0610-G1dh/none-Hi-Kn010G3/L0137-k0 (antibody, V domains shown)
VH: QVQLVQSGAEVKKPGASVKVSCKASGYTFTDYEMHWIRQPPGQGLEWIGAIDGKTPDTAYSQKFKGRVTLTADKSTSTAYMELSSLTSEDTAVYYCTRFYSYTYWGQGTLVTVSS
VL: DIVMTQSPLSLPVTPGEPASISCRSSQSLVHSNRNTYLHWYQQKPGQAPRLLIYKVSNRFGGVPDRFSGSGSGTDFTLKISRVEAEDVGVYYCGQGTQVPYTFGQGTKLEIK
notes: one-arm
Consider B3, for which the Kd amounted to 5.87 nM.

B4: H0610-G1dh/none-Hi-Kn010G3/L0139-k0 (antibody, V domains shown)
VH: QVQLVQSGAEVKKPGASVKVSCKASGYTFTDYEMHWIRQPPGQGLEWIGAIDGKTPDTAYSQKFKGRVTLTADKSTSTAYMELSSLTSEDTAVYYCTRFYSYTYWGQGTLVTVSS
VL: DIVMTQSPLSLPVTPGEPASISCRSSQSLVHSNRNTYLHWYQQKPGQAPRLLIYKVSNRFIGVPDRFSGSGSGTDFTLKISRVEAEDVGVYYCGQGTQVPYTFGQGTKLEIK
notes: one-arm
B4 gave a Kd of 4.78 nM.

B5: H0610-G1dh/none-Hi-Kn010G3/L0154-k0 (antibody, V domains shown)
VH: QVQLVQSGAEVKKPGASVKVSCKASGYTFTDYEMHWIRQPPGQGLEWIGAIDGKTPDTAYSQKFKGRVTLTADKSTSTAYMELSSLTSEDTAVYYCTRFYSYTYWGQGTLVTVSS
VL: DIVMTQSPLSLPVTPGEPASISCRSSQSLVHSNRNTYLHWYQQKPGQAPRLLIYKVSNRFSGVPDRFSGSGSGTDFTLKISRVEAEDVGVYYCIQGTQVPYTFGQGTKLEIK
notes: one-arm
B5 displayed a Kd of 1.01 nM.

B6: H0610-G1dh/none-Hi-Kn010G3/L0152-k0 (antibody, V domains shown)
VH: QVQLVQSGAEVKKPGASVKVSCKASGYTFTDYEMHWIRQPPGQGLEWIGAIDGKTPDTAYSQKFKGRVTLTADKSTSTAYMELSSLTSEDTAVYYCTRFYSYTYWGQGTLVTVSS
VL: DIVMTQSPLSLPVTPGEPASISCRSSQSLVHSNRNTYLHWYQQKPGQAPRLLIYKVSNRFSGVPDRFSGSGSGTDFTLKISRVEAEDVGVYYCFQGTQVPYTFGQGTKLEIK
notes: one-arm
The molecule B6 displayed a Kd of 2.36 nM.

B7: H0610-G1dh/none-Hi-Kn010G3/L0149-k0 (antibody, V domains shown)
VH: QVQLVQSGAEVKKPGASVKVSCKASGYTFTDYEMHWIRQPPGQGLEWIGAIDGKTPDTAYSQKFKGRVTLTADKSTSTAYMELSSLTSEDTAVYYCTRFYSYTYWGQGTLVTVSS
VL: DIVMTQSPLSLPVTPGEPASISCRSSQSLVHSNRNTYLHWYQQKPGQAPRLLIYKVSNRFSGVPDRFSGSGSGTDFTLKISRVEAEDVGVYYCAQGTQVPYTFGQGTKLEIK
notes: one-arm
B7: binding was characterised by a dissociation constant (Kd) of 2.16 nM.

B8: H0610-G1dh/none-Hi-Kn010G3/L0136-k0 (antibody, V domains shown)
VH: QVQLVQSGAEVKKPGASVKVSCKASGYTFTDYEMHWIRQPPGQGLEWIGAIDGKTPDTAYSQKFKGRVTLTADKSTSTAYMELSSLTSEDTAVYYCTRFYSYTYWGQGTLVTVSS
VL: DIVMTQSPLSLPVTPGEPASISCRSSQSLVHSNRNTYLHWYQQKPGQAPRLLIYKVSNRFFGVPDRFSGSGSGTDFTLKISRVEAEDVGVYYCGQGTQVPYTFGQGTKLEIK
notes: one-arm
Molecule B8 returned a Kd of 5.04 nM.

B9: H0610-G1dh/none-Hi-Kn010G3/L0143-k0 (antibody, V domains shown)
VH: QVQLVQSGAEVKKPGASVKVSCKASGYTFTDYEMHWIRQPPGQGLEWIGAIDGKTPDTAYSQKFKGRVTLTADKSTSTAYMELSSLTSEDTAVYYCTRFYSYTYWGQGTLVTVSS
VL: DIVMTQSPLSLPVTPGEPASISCRSSQSLVHSNRNTYLHWYQQKPGQAPRLLIYKVSNRFPGVPDRFSGSGSGTDFTLKISRVEAEDVGVYYCGQGTQVPYTFGQGTKLEIK
notes: one-arm
For B9, binding was characterised by a dissociation constant (Kd) of 0.573 nM.

B10: H0610-G1dh/none-Hi-Kn010G3/L0126-k0 (antibody, V domains shown)
VH: QVQLVQSGAEVKKPGASVKVSCKASGYTFTDYEMHWIRQPPGQGLEWIGAIDGKTPDTAYSQKFKGRVTLTADKSTSTAYMELSSLTSEDTAVYYCTRFYSYTYWGQGTLVTVSS
VL: DIVMTQSPLSLPVTPGEPASISCRSSQSLVHSNRNTYLHWYQQKPGQAPRLLIYKVSNRNSGVPDRFSGSGSGTDFTLKISRVEAEDVGVYYCGQGTQVPYTFGQGTKLEIK
notes: one-arm
As for B10, the Kd turned out to be 5.62 nM.

B11: H0610-G1dh/none-Hi-Kn010G3/L0138-k0 (antibody, V domains shown)
VH: QVQLVQSGAEVKKPGASVKVSCKASGYTFTDYEMHWIRQPPGQGLEWIGAIDGKTPDTAYSQKFKGRVTLTADKSTSTAYMELSSLTSEDTAVYYCTRFYSYTYWGQGTLVTVSS
VL: DIVMTQSPLSLPVTPGEPASISCRSSQSLVHSNRNTYLHWYQQKPGQAPRLLIYKVSNRFHGVPDRFSGSGSGTDFTLKISRVEAEDVGVYYCGQGTQVPYTFGQGTKLEIK
notes: one-arm
For B11, binding was characterised by a dissociation constant (Kd) of 5.24 nM.

B12: H0610-G1dh/none-Hi-Kn010G3/L0151-k0 (antibody, V domains shown)
VH: QVQLVQSGAEVKKPGASVKVSCKASGYTFTDYEMHWIRQPPGQGLEWIGAIDGKTPDTAYSQKFKGRVTLTADKSTSTAYMELSSLTSEDTAVYYCTRFYSYTYWGQGTLVTVSS
VL: DIVMTQSPLSLPVTPGEPASISCRSSQSLVHSNRNTYLHWYQQKPGQAPRLLIYKVSNRFSGVPDRFSGSGSGTDFTLKISRVEAEDVGVYYCEQGTQVPYTFGQGTKLEIK
notes: one-arm
On to B12, for which the Kd amounted to 1.25 nM.

B13: H0610-G1dh/none-Hi-Kn010G3/L0140-k0 (antibody, V domains shown)
VH: QVQLVQSGAEVKKPGASVKVSCKASGYTFTDYEMHWIRQPPGQGLEWIGAIDGKTPDTAYSQKFKGRVTLTADKSTSTAYMELSSLTSEDTAVYYCTRFYSYTYWGQGTLVTVSS
VL: DIVMTQSPLSLPVTPGEPASISCRSSQSLVHSNRNTYLHWYQQKPGQAPRLLIYKVSNRFLGVPDRFSGSGSGTDFTLKISRVEAEDVGVYYCGQGTQVPYTFGQGTKLEIK
notes: one-arm
B13 yielded a Kd of 3.38 nM.

B14: H0610-G1dh/none-Hi-Kn010G3/L0132-k0 (antibody, V domains shown)
VH: QVQLVQSGAEVKKPGASVKVSCKASGYTFTDYEMHWIRQPPGQGLEWIGAIDGKTPDTAYSQKFKGRVTLTADKSTSTAYMELSSLTSEDTAVYYCTRFYSYTYWGQGTLVTVSS
VL: DIVMTQSPLSLPVTPGEPASISCRSSQSLVHSNRNTYLHWYQQKPGQAPRLLIYKVSNRVSGVPDRFSGSGSGTDFTLKISRVEAEDVGVYYCGQGTQVPYTFGQGTKLEIK
notes: one-arm
Take B14: the affinity, expressed as Kd, was 5.65 nM.

B15: H0610-G1dh/none-Hi-Kn010G3/L0141-k0 (antibody, V domains shown)
VH: QVQLVQSGAEVKKPGASVKVSCKASGYTFTDYEMHWIRQPPGQGLEWIGAIDGKTPDTAYSQKFKGRVTLTADKSTSTAYMELSSLTSEDTAVYYCTRFYSYTYWGQGTLVTVSS
VL: DIVMTQSPLSLPVTPGEPASISCRSSQSLVHSNRNTYLHWYQQKPGQAPRLLIYKVSNRFMGVPDRFSGSGSGTDFTLKISRVEAEDVGVYYCGQGTQVPYTFGQGTKLEIK
notes: one-arm
For B15, the Kd was 3.86 nM.

B16: H0610-G1dh/none-Hi-Kn010G3/L0134-k0 (antibody, V domains shown)
VH: QVQLVQSGAEVKKPGASVKVSCKASGYTFTDYEMHWIRQPPGQGLEWIGAIDGKTPDTAYSQKFKGRVTLTADKSTSTAYMELSSLTSEDTAVYYCTRFYSYTYWGQGTLVTVSS
VL: DIVMTQSPLSLPVTPGEPASISCRSSQSLVHSNRNTYLHWYQQKPGQAPRLLIYKVSNRYSGVPDRFSGSGSGTDFTLKISRVEAEDVGVYYCGQGTQVPYTFGQGTKLEIK
notes: one-arm
B16 came in with a Kd of 2.53 nM.

B17: H0610-G1dh/none-Hi-Kn010G3/L0145-k0 (antibody, V domains shown)
VH: QVQLVQSGAEVKKPGASVKVSCKASGYTFTDYEMHWIRQPPGQGLEWIGAIDGKTPDTAYSQKFKGRVTLTADKSTSTAYMELSSLTSEDTAVYYCTRFYSYTYWGQGTLVTVSS
VL: DIVMTQSPLSLPVTPGEPASISCRSSQSLVHSNRNTYLHWYQQKPGQAPRLLIYKVSNRFRGVPDRFSGSGSGTDFTLKISRVEAEDVGVYYCGQGTQVPYTFGQGTKLEIK
notes: one-arm
Consider B17, for which the Kd was 2.66 nM.

B18: H0610-G1dh/none-Hi-Kn010G3/L0144-k0 (antibody, V domains shown)
VH: QVQLVQSGAEVKKPGASVKVSCKASGYTFTDYEMHWIRQPPGQGLEWIGAIDGKTPDTAYSQKFKGRVTLTADKSTSTAYMELSSLTSEDTAVYYCTRFYSYTYWGQGTLVTVSS
VL: DIVMTQSPLSLPVTPGEPASISCRSSQSLVHSNRNTYLHWYQQKPGQAPRLLIYKVSNRFQGVPDRFSGSGSGTDFTLKISRVEAEDVGVYYCGQGTQVPYTFGQGTKLEIK
notes: one-arm
Molecule B18 returned a Kd of 4.84 nM.

B19: H0610-G1dh/none-Hi-Kn010G3/L0147-k0 (antibody, V domains shown)
VH: QVQLVQSGAEVKKPGASVKVSCKASGYTFTDYEMHWIRQPPGQGLEWIGAIDGKTPDTAYSQKFKGRVTLTADKSTSTAYMELSSLTSEDTAVYYCTRFYSYTYWGQGTLVTVSS
VL: DIVMTQSPLSLPVTPGEPASISCRSSQSLVHSNRNTYLHWYQQKPGQAPRLLIYKVSNRFVGVPDRFSGSGSGTDFTLKISRVEAEDVGVYYCGQGTQVPYTFGQGTKLEIK
notes: one-arm
Take B19: the affinity, expressed as Kd, was 4.38 nM.

B20: H0610-G1dh/none-Hi-Kn010G3/L0148-k0 (antibody, V domains shown)
VH: QVQLVQSGAEVKKPGASVKVSCKASGYTFTDYEMHWIRQPPGQGLEWIGAIDGKTPDTAYSQKFKGRVTLTADKSTSTAYMELSSLTSEDTAVYYCTRFYSYTYWGQGTLVTVSS
VL: DIVMTQSPLSLPVTPGEPASISCRSSQSLVHSNRNTYLHWYQQKPGQAPRLLIYKVSNRFWGVPDRFSGSGSGTDFTLKISRVEAEDVGVYYCGQGTQVPYTFGQGTKLEIK
notes: one-arm
With B20, the Kd is 3.28 nM.

B21: H0610-G1dh/none-Hi-Kn010G3/L0129-k0 (antibody, V domains shown)
VH: QVQLVQSGAEVKKPGASVKVSCKASGYTFTDYEMHWIRQPPGQGLEWIGAIDGKTPDTAYSQKFKGRVTLTADKSTSTAYMELSSLTSEDTAVYYCTRFYSYTYWGQGTLVTVSS
VL: DIVMTQSPLSLPVTPGEPASISCRSSQSLVHSNRNTYLHWYQQKPGQAPRLLIYKVSNRRSGVPDRFSGSGSGTDFTLKISRVEAEDVGVYYCGQGTQVPYTFGQGTKLEIK
notes: one-arm
On to B21, for which the affinity, expressed as Kd, was 5.28 nM.

A word on the Kd: it is the equilibrium constant for the complex coming apart.
